Earlier results in article PMC6690345.

Target: integrin αIIbβ3 (Homo sapiens) (UniProt P08514)
Experiment: SPR

In the case of ERp5 (from UniProt Q15084), the Kd is listed as 21 µM.
In the case of PDI (from UniProt P07237), the Kd is given as 1 µM.
